This note sets out measurements from patent US12458688B2, “Epitopes” (Scancell Limited, priority 2018, dated 2025).

For one test, the system named is HLA transgenic mice. As to the kind of experiment: T cell response to Hcit peptides in HLA transgenic mice (screening, ex vivo ELISpot). Set-up: species or system mouse. To be noted: yes/no; Hcit peptide with CpG/MPLA. As for the experimental part:
(§1) C57BL/6 mice (Charles River, UK), HLA-DR4 mice (Model #4149, Taconic, USA), HLA-A2/DR1 (HHDII/DR1, Pasteur Institute), HLA-A2.1+/+HLA-DP4+/+hCD4+/+ (HLA-HHDII/DP4) transgenic mice (EM: 02221, European Mouse Mutant Archive) described in patent WO2013/017545 A1 (EMMA repository, France) were used, aged between 8 and 12 weeks. Peptides were dissolved in PBS to 1 mg/ml and then emulsified (a series of dilutions) with CpG ODN 1826 and MPLA 6 μg/mouse of each (Invivogen, UK). Peptides (25 μg/mouse) were injected subcutaneously at the base of the tail. Mice were immunised at days 1, 7 and 14 for peptide immunisation. Spleens were removed for analysis at day 21 unless stated otherwise.
(§2) ELISpot assays were performed using murine IFNγ, IL-17 and IL-10 capture and detection reagents according to the manufacturer's instructions (Mabtech, Sweden). In brief, anti-IFNγ, IL-17 and IL-10 specific antibodies were coated onto wells of 96-well Immobilin-P plate. Synthetic peptides (at various concentrations) and 5×10^5 per well splenocytes were added to wells of the plate in quadruplicate Tumour target cells were added where relevant at 5×10^4/well in triplicate and plates incubated for 40 hrs at 37° C. After incubation, captured IFNγ, IL-10 and IL-17 were detected by biotinylated anti-IFNγ, IL-10 and IL-17 antibodies and developed with a streptavidin alkaline phosphatase and chromogenic substrate. Lipopolysaccharide (LPS; 5 μg/ml) was used as a positive control. For MHC blocking studies, anti-CD4 blocking antibody (GK1.5) or anti-CD4 blocking antibody (RPA-T4) for HHDII/DP4 mice which express human CD4 and anti-CD8 blocking antibody (2.43) from Bioxcell were used at 20 μg/ml. Spots were analysed and counted using an automated plate reader (Cellular Technologies Ltd).
(§3) Screening was performed to identify potential homocitrullinated vimentin epitopes in mice. Mice were immunised with pools of homocitrullinated peptides. […] Each pool was administered as three immunisations containing 20 μg of each peptide and CpG/MPLA as an adjuvant on day 1, 8 and 15. On day 21 the mice were culled and the immune responses to each peptide within the immunising pool were assessed by ex vivo ELISpot. Given that different mouse strains have different MHC repertoires a number of strains were used for screening. Peptide responses were assessed in transgenic strains expressing human DR4 or HHDII/DR1 in a C57BL/6 background (see methods).
Screening was performed to identify potential homocitrullinated ALDOA epitopes in transgenic HHDII/DP4 and HHDII/DR1 mice. Mice were immunised with pools of human homocitrullinated peptides. […] Each pool was administered as three immunisations containing 20 μg of each peptide and CpG/MPLA as an adjuvant. After 21 days the mice were culled and the immune responses to each peptide within the immunising pool were assessed by ex vivo ELISpot in HHDII/DP4 (FIG. 4b) and HHDII/DR1 mice (FIG. 4d).
Using this combination of predictions, 5 CyK8 peptides containing homocitrulline were synthesised (Table 4). Screening was performed to identify potential homocitrullinated Cyk8 epitopes in transgenic HHDII/DP4. Mice were immunised with pools of human homocitrullinated peptides. […] Each pool was administered as three immunisations containing 20 μg of each peptide and CpG/MPLA as an adjuvant. After 21 days the mice were culled and the immune responses to each peptide within the immunising pool were assessed by ex vivo ELISpot in HHDII/DP4 (FIG. 10a).

The target of another test is T1, HLA-DP4 (Homo sapiens, UniProt P04440+P20036).
T1 sequence (P20036 29-260): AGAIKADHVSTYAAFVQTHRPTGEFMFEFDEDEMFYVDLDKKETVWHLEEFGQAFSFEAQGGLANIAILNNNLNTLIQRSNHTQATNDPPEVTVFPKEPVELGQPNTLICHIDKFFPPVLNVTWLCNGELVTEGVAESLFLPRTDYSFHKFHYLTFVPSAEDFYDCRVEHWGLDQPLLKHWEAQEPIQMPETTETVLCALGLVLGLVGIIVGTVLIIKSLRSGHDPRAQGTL
T1 sequence (P04440 30-258): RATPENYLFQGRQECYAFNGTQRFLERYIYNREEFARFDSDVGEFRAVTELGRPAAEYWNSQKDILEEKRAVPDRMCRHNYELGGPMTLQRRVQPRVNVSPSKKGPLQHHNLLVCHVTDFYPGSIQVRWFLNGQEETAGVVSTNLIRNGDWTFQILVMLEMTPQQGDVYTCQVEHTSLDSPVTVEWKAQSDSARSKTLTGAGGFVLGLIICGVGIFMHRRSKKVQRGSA
Description: DP4 competition assay with biotinylated Hep B peptide. To be noted: inhibition of biotinylated Hep B binding to HLA-DP4; 5 fold excess test peptide, equal amount for unlabelled Hep B. As for the experimental part:
2×T175 gave 2.5×10^7 B16 HHDII/DP4 (B16F1 β2M H2Ab1 dKO A35 HHDII/DP4 H7/2E9/F9 p14) cells. This was enough for 5 preps using the following protocol with Mem-PER™ Plus Membrane Protein Extraction Kit (thermo-scientific cat #89842).
5×10^6 cells were resuspended in the growth media by scraping the cells off the surface of the plate with a cell scraper and then centrifuged at 300 g for 5 mins. The cell pellet was washed with 3 ml of Cell Wash Solution and centrifuged at 300 g for 5 mins. The supernatant was removed and discarded. The cells were resuspended in 1.5 ml of Cell Wash Solution and transfer to a 2 ml centrifuge tube and centrifuged at 300 g for 5 mins. The supernatant was discarded. 0.75 ml of permeabilization buffer was added to the cell pellet and vortexed briefly to obtain a homogeneous cell suspension and incubated for 10 mins at 4° C. with constant mixing. The permeabilized cells were centrifuge for 15 mins at 16,000g before carefully removing the supernatant containing cytosolic proteins and transfering to a new tube. 0.5 ml of solubilization buffer was added to the pellet and resuspend prior to incubating at 4° C. for 30 minutes with constant mixing prior to centrifugation at 16,000g for 15 mins at 4° C. The supernatant containing solubilized membrane and membrane-associated proteins was transfered to a new tube. Aliquots were frozen at −80° C. for future use. 12.5 μl Halt™ Protease and Phosphatase Inhibitor Cocktail, EDTA-free (100X) thermo-scientific (Catalog number 78445) was added prior to freezing.
High binding plates were coated with streptavidin (Sigma S4762 at 1 mg/ml) 1/500 in PBS and incubated overnight at 4° C. The plates were blocked with 1% BSA in PBS for 4 hrs at room temp and washed 3×PBS/0.5% Tweenx. 450 μl of cell prep lysate (B16F1 B16 HHDII/DP4 H7/2E9/F9) was mixed with 50 μg test peptide (see below) or 10 μg of unlabelled Hep B peptide for 30 mins. 10 μg biotinylated Hep B peptide was added & incubated for 4 hrs at 37° C.:
Lysate/peptide mix was added to the plates at 100 μl/well and incubated for 4 hrs at room temperature. Plates were washed 3× with PBS/0.5% Tween. 100 μl per well of Leinco anti-Human HLA-DP4 clone B7/21 #H260 1 mg/ml at 1/500 dilution in 1% BSA/PBS was added and incubated for 1 hr at room temperature prior to washing 3× PBS/0.5% Tween. Goat anti-mouse lgG3-HRP at 0.5 mg/ml 1/500 100 μl per well (Invitrogen #M32607) diluted in 1% BSA/PBS) was added for 1 hr at room temperature prior to washing and adding 150 μl of TMB substrate to each well. The reaction was stopped with 50 μl of 2N H2SO4 and plates read plate at 450 nm.
To ensure that the biotinylation of Hep B had not interfered with its binding, HLA-DP4 was incubated with equal amounts of biotinylated and unlabelled Hep B peptide. Unlabelled peptide competed equally reducing binding by 47% (FIG. 53b).
The biotinylated HepB peptide was then incubated with a 5 fold excess of the unlabelled homocitrulline peptides. All peptides inhibited the binding of biotinylated Hep B to HLA-DP4 but to varying levels (FIG. 53c-e).

The next test deals with HLA-HHDII/DR1 mice. Description: Ex vivo IFNγ ELISpot after peptide immunisation, HHDII/DR1 mice. The format is in vivo, mouse. The protocol:
as §1, §2
as §3, with “methods). […]” for “methods).”
The five selected homocitrullinated Cyk8 peptides were also screened in HHDII/DR1 transgenic mice. […] Response to Cyk8 112Hcit peptide in the HHDII/DR1 mice was lost in the presence of CD8 blocking antibody but less effect of the CD4 blocking antibody was seen (FIG. 12b). […] Responses to homocitrullinated Cyk8 peptides show both CD4 and CD8 mediated responses.

In another test the test system is HLA-DR4 mice. Description: Ex vivo IFNγ ELISpot after peptide immunisation, HLA-DR4 mice. In kind it is in vivo, mouse. The protocol:
as §1, §2, §3

The target of a further test is HLA-DP4 (human). As to the kind of experiment: DP4 competition ELISA; competitor biotinylated Hep B peptide; 5 fold excess of unlabelled peptide. (ELISA stands for enzyme-linked immunosorbent assay.)
The test system of the next test is B16F1 HHDII/DR1 tumours. As to the kind of experiment: Tumour therapy, B16F1 HHDII/DR1 tumour in HHDII/DR1 mice. In kind it is in vivo, mouse. To be noted: peptide with CpG/MPLA days 4, 11, 18. From the text: To determine if the epitopes that stimulate T cell responses are presented on MHC-II within the tumour environment, our homocitrullinated peptides were checked for tumour therapy in B16 tumour models. Mice were implanted with tumour cells on day 1 and then immunised with peptides and CpG/MPLA on days 4, 11 and 18.
HHDII/DR1 (FIG. 19a) or DR4 (FIG. 19b) transgenic mice were challenged with B16F1 HHDII/DR1 or B16F1 DR4 tumours respectively prior to immunisation with vimentin 116-135Hcit peptide and tumour growth and survival were monitored.
HHDII/DR1 mice were implanted with B16HHDII/DR1 tumour cells on day 1 and then immunised with Cyk8 371Hcit, 112hcit or both peptides and CpG/MPLA on days 4, 11 and 18.

[1] abbreviates: 3 immunisations with CpG/MPLA, day 21.

Where no end group is shown, it is not given here. [ ]: non-standard residue; d: D form. hCit = NC(=O)NCCCC[C@H](N)C(=O)O

By % inhibition is commonly meant the share of the control response that was lost under treatment. A lower % inhibition goes with little suppression. Turning to “LSDHHVYLEGTLL-hcit-PNMVT (LSDHHVYLEGTLL[hCit]PNMVT) [Aldolase A 217-235 Hcit]”, the T cell response result in the test on HLA transgenic mice was “no”. The “% inhibition” value with HLA-DP4 is given as 84%. Regarding “QIDVDVS-Hcit-PDLTAALRDVRQQ [Vimentin 255-275 Hcit]”, the T cell response result in the test with HLA transgenic mice is reported as “no”. “KVRFLEQQN-Hcit-LLAE [Vimentin 120-134 Hcit]”: the “cross reactivity of vimentin 116-135 Hcit response to shorter Hcit peptide” value with HLA-HHDII/DR1 mice and in the test with HLA-DR4 mice was “Cross reactivity was seen” in each case. As for Aldolase A 74-93 WT (peptide), in the test with HLA-DP4 (human), the % inhibition came to 27%. Still for that read-out and setting: for Aldolase A 140-157 WT (peptide) the value was 29%. With “LPLVDTHS-Hcit-RTLL-Hcit-TVETRDGQV [Vimentin 431-454 Hcit]”, in the test with HLA transgenic mice, the T cell response result is listed as “no”. In the test with HLA-DP4 (human), Cytokeratin 8 371-388 Hcit (peptide) returned a % inhibition of 72%. Vimentin 116-135 WT (peptide) returned a % inhibition in the test with HLA-DP4 (human) of 48%. Consider “EAEEWY-Hcit-S-Hcit-FADLSEAAN [Vimentin 286-303 Hcit]”, for which the T cell response result in the test with HLA transgenic mice is given as “no”. For the molecule “NYIDKVRFLEQQNKILLAEL [Vim 116-135 WT, unmodified wild type vimentin 116-135 peptide, reference compound]”, in the test on B16F1 HHDII/DR1 tumours, the “anti-tumour response / survival vs control” value is on record as “did not show a significant anti-tumour response”. In addition, the “IFNγ ELISpot response” value with HLA-HHDII/DR1 mice (setting [1]) and with HLA-DR4 mice (setting [1]) was “failed to induce any responses” throughout. The “% inhibition” value in the test with HLA-DP4 is given as 48%. On to “hcit-CPLL-hcit-PWALTFSYGRALQ ([hCit]CPLL[hCit]PWALTFSYGRALQ) [Aldolase A 289-307 Hcit]”, for which the T cell response result in the test with HLA transgenic mice is recorded as “no”. For the same molecule, the “% inhibition” value with HLA-DP4 worked out at 45%. Consider LSDHHVYLEGTLL[hCit]PNMVT [Aldolase A 217-235 Hcit], for which the % inhibition with HLA-DP4 (human) was found to be 84%. Same read-out and setting: for [hCit]DGADFA[hCit]WRCVL[hCit]IGEH [Aldolase A 140-157 Hcit] the value was 76%; for LEQQN[hCit]MLET[hCit]WSLLQQQ[hCit]T [Cytokeratin 8 112-131 Hcit], 64%; for KFASFID[hCit]VRFLEQQN[hCit]MLE [Cytokeratin 8 101-120 Hcit], 71%.

IGGVILFHETLYQ[hCit]ADDGRP [Aldolase A 74-93 Hcit]: the % inhibition in the test with HLA-DP4 (human) came to 69%. Still for that read-out and setting: then [hCit]LALDIEIATYR[hCit]LLEGEE [Cytokeratin 8 381-399 Hcit], with 60%; and NYID[hCit]VRFLEQQN[hCit]ILLAEL [Vimentin 116-135 Hcit], with 44%; and [hCit]CPLL[hCit]PWALTFSYGRALQ [Aldolase A 289-307 Hcit], with 45%.
